Source: doi:10.1101/2020.08.17.253781

Target: GST-LOV2GIV (L) (Avena sativa | not stated)
Assay: pull-down

Chain of His-Gαi3 (P08753 whole entry): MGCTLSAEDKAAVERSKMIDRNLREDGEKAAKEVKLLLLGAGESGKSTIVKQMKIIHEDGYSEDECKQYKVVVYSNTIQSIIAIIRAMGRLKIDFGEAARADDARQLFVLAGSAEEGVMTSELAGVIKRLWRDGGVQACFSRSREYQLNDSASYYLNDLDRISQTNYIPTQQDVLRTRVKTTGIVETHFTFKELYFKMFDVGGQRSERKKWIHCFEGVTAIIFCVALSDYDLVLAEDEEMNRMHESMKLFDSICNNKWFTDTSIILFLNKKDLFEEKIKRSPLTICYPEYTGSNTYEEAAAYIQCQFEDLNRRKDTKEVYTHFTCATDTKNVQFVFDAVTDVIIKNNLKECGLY

Substance: His-Gαi3 (from UniProt P08753 1-354) (natural protein)
- fold binding, lit over dark conformation of LOV2GIV: 3 fold
